Tests used:
[1] = from Diabetes Care, Vol. 6/Supplement 1 (1983), 4; cited from earlier work
[2] = Deamidation products formed on storage at 25° C., pH 3, DISC PAGE analysis; format: physicochemical; details: 0.24 mM analog, 3 Zn++ per hexamer
Description: Deamidation products formed per month after storage 25 at 25° C. and a pH value of 3.
The compositions tested were as follows: 0.24 mM insulin analog, 0.3% (w/v) m-cresol, 1.6% (w/v) glycerol, 3 Zn^++ per insulin hexamer and 0.01 M sodium acetate to obtain a pH value of 3. The determinations were made using DISC PAGE analysis.

[3] = Di- and polymerization products formed on storage at 25 C, HPSEC; format: physicochemical; details: 3 Zn++ per hexamer
Description: The compositions tested were as follows: 0.24 mM insulin analog, 0.3% /w/v) m-cresol, 1.6% (w/v) glycerol, 0.01 M sodium acetate and 3 Zn^++ per insulin hexamer. The determination was made using HPSEC (high performance size exclusion chromatography).
A reference insulin having Asn^A21 is included for comparison.

Substance: monocomponent procine insulin: monocomponent porcine insulin
- established potency [1]: 28.5 U/mg dry substance

Substance: Arg^B27 Thr^B30 --NH2 human insulin
- Deamidation products formed per month [2]: approx. 10%
- Di- and polymerization products formed per month ([3]; pH of formulation 3.0, 0.24 mM analog): 0.15%
- Di- and polymerization products formed per month ([3]; pH of formulation 4.0, 0.24 mM analog): 0.62%
- Di- and polymerization products formed per month ([3]; pH of formulation 5.0, 0.24 mM analog): 1.4%
